Several values for one entry are separate records, joined by “and”; a condition that tells them apart may be missing. Equal values may be shown once. Blank lines part the entries; values can stand above or below the molecule they belong to.
Tests used:
[1] = target: B7-H6 C212S extracellular portion, uniform simple N-glycans (expressed in HEK293S GnTI^−) (UniProt Q68D85); assay: SPR; details: domain or fragment
[2] = target: B7-H6 C212S extracellular portion, uniform simple N-glycans (expressed in HEK293S GnTI^−) (UniProt Q68D85); assay: SPR; NKp30_Stalk oligomer; details: domain or fragment
[3] = target: B7-H6 C212S extracellular portion, wild-type N-glycosylation (expressed in HEK293T) (UniProt Q68D85); assay: ITC; NKp30_Stalk monomer; details: domain or fragment
[4] = target: B7-H6 C212S extracellular portion, wild-type N-glycosylation (expressed in HEK293T) (UniProt Q68D85); assay: ITC; NKp30_Stalk oligomer; details: domain or fragment
[5] = target: B7-H6 C212S extracellular portion, uniform simple N-glycans (expressed in HEK293S GnTI^−) (UniProt Q68D85); assay: SPR; NKp30_Stalk monomer; details: domain or fragment
[6] = target: NKp30_Stalk, uniform simple N-glycans (expressed in HEK293S GnTI^−) (human) (UniProt O14931); assay: SPR; NKp30_Stalk monomer; details: domain or fragment
[7] = target: NKp30_Stalk, wild-type N-glycosylation (expressed in HEK293T) (human) (UniProt O14931); assay: AUC; sedimentation velocity of glycosylated and deglycosylated NKp30_Stalk oligomers, 20 μM, 20 °C, 10 mM HEPES pH 7.5, 150 mM NaCl, 10 mM NaN3, 36,000 or 48,000 rpm
[8] = target: NKp30_Stalk, wild-type N-glycosylation (expressed in HEK293T) (human) (UniProt O14931); assay: SPR; NKp30_Stalk oligomer; details: domain or fragment
[9] = target: NKp30_Stalk, uniform simple N-glycans (expressed in HEK293S GnTI^−) (human) (UniProt O14931); assay: SPR; NKp30_Stalk oligomer; details: domain or fragment
[10] = target: NKp30_Stalk, wild-type N-glycosylation (expressed in HEK293T) (human) (UniProt O14931); assay: SPR; NKp30_Stalk monomer; details: domain or fragment
[11] = target: NKp30_Stalk, uniform simple N-glycans (expressed in HEK293S GnTI^−) (human) (UniProt O14931); assay: SPR; NKp30_Stalk monomer; details: domain or fragment; remark: listed apart in the source
[12] = target: NKp30_Stalk, deglycosylated with endoglycosidase Endo F1 (human) (UniProt O14931); assay: SPR; details: domain or fragment
[13] = target: B7-H6 C212S extracellular portion, wild-type N-glycosylation (expressed in HEK293T) (UniProt Q68D85); assay: ITC; NKp30_Stalk monomer; details: domain or fragment; remark: listed apart in the source
[14] = target: B7-H6 C212S extracellular portion, glycosylation state not told in the text for the experiment (UniProt Q68D85); assay: SPR; as a7 but analyte is the oligomeric fraction of NKp30_Stalk; increase in affinity put down to the avidity of the oligomers
[15] = target: B7-H6 C212S extracellular portion, glycosylation state not told in the text for the experiment (UniProt Q68D85); assay: SPR; Biacore T200; biotinylated B7-H6 on streptavidin sensor; analyte NKp30_LBD, deglycosylated NKp30_Stalk or the monomeric fraction of NKp30_Stalk, 1 nM to 16.3 μM, single cycle kinetics; 10 mM HEPES pH 7.5, 150 mM NaCl, 1 mg/mL dextran, 0.05% Tween-20; steady-state responses fitted with AB hetero-association model
[16] = target: NKp30_LBD (Ligand Binding Domain), glycosylation state not told in the text for the experiment (human) (UniProt O14931); assay: AUC; NKp30_LBD at high concentration, 20 mg/mL, 50,000 rpm, 3 mm centerpiece, interference optics, nonideal c(s) model
B7-H6 (Homo sapiens) = B7-H6 (Homo sapiens) (UniProt Q68D85); details: cited from earlier work
[17] = target: NKp30_Stalk, wild-type N-glycosylation (expressed in HEK293T) (human) (UniProt O14931); assay: ITC; as a9 but the oligomeric fraction of NKp30_Stalk in the cell
[18] = target: NKp30_Stalk, glycosylated, type of N-glycans not told in the text for the experiment (human) (UniProt O14931); assay: AUC; sedimentation velocity of the monomeric fraction of glycosylated NKp30_Stalk, of B7-H6 and of their equimolar mixture, 20 μM, 20 °C, HEPES buffer
[19] = target: NKp30_Stalk, wild-type N-glycosylation (expressed in HEK293T) (human) (UniProt O14931); assay: AUC; sedimentation velocity of the oligomeric fraction of NKp30_Stalk (HEK293T) with ATTO488-labelled B7-H6, read at 280 nm (total) and 480 nm (B7-H6 only), 20 °C
[20] = solubility during deglycosylation in HEPES buffer; details: glycan lost; control: glycosylated B7-H6 (HEK293S GnTI−)
[21] = target: T1, B7-H6 C212S extracellular portion, wild-type N-glycosylation (expressed in HEK293T) (UniProt Q68D85 25-245, C212S, complex wild-type N-glycans (HEK293T); biotinylated with EZ-Link NHS-Biotin for SPR); assay: ITC
T1 sequence: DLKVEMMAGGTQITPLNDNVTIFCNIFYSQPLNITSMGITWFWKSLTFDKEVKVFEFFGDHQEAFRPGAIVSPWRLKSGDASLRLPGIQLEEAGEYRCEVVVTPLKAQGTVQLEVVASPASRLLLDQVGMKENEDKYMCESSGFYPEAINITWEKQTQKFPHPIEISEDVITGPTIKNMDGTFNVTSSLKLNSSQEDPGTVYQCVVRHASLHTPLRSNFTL

[22] = target: T2, B7-H6 C212S extracellular portion, uniform simple N-glycans (expressed in HEK293S GnTI^−) (UniProt Q68D85 25-245, C212S, uniform Asn-GlcNAc2Man5 N-glycans; biotinylated with EZ-Link NHS-Biotin for SPR; labelled with ATTO 488-NHS ester for the two-wavelength sedimentation analysis); assay: SPR
T2 sequence: T1 sequence

[23] = sedimentation velocity AUC; details: glycan changed form; control: NKp30_Stalk from HEK293S GnTI− (uniform glycans)

Kd [2]: 90 nM | Kd [3]: 590 nM | Kd [4]: 830 nM | Kd [5]: 380 nM
Molecule: NKp30_Stalk, wild-type N-glycosylation (expressed in HEK293T) (from UniProt O14931 19-135)

Kd [6]: 370 nM
Molecule: B7-H6 C212S extracellular portion, wild-type N-glycosylation (expressed in HEK293T) (from UniProt Q68D85 25-245)

stoichiometry N [7]: 8 units and 16 units
Molecule: NKp30_Stalk, wild-type N-glycosylation (expressed in HEK293T) (from UniProt O14931 19-135) (domain or fragment)

Kd [8]: 90 nM | Kd [9]: 70 nM | Kd [10]: 380 nM | Kd [6]: 350 nM | Kd [11]: 370 nM | Kd [12]: 350 nM
Molecule: B7-H6 C212S extracellular portion, uniform simple N-glycans (expressed in HEK293S GnTI^−) (from UniProt Q68D85 25-245)

stoichiometry N [16]: 2
Molecule: NKp30_LBD (Ligand Binding Domain), glycosylation state not told in the text for the experiment (from UniProt O14931 19-130) (domain or fragment)

percent of NKp30 Stalk T oligomers accessible [17]: 60 to 70% | stoichiometry N [18]: 1
B1: B7-H6 C212S extracellular portion, glycosylation state not told in the text for the experiment (domain or fragment)
chain: T1 sequence
modifications: glycosylation state marked only in the figures; biotinylated with EZ-Link NHS-Biotin for SPR

percent of NKp30 binding sites occupied by B7-H6 in the oligomers [19]: 60% | stoichiometry N ([19]; scale: B7-H6 molecules per eight NKp30 molecules): 5
B2: B7-H6 C212S extracellular portion, uniform simple N-glycans (expressed in HEK293S GnTI^−) (domain or fragment)
chain: T1 sequence
modifications: uniform Asn-GlcNAc2Man5 N-glycans; biotinylated with EZ-Link NHS-Biotin for SPR; labelled with ATTO 488-NHS ester for the two-wavelength sedimentation analysis

Kd [21]: 550 nM | Kd [22]: 690 nM
B5: NKp30_LBD (Ligand Binding Domain), deglycosylated with endoglycosidase Endo F1 (domain or fragment)
chain: LWVSQPPEIRTLEGSSAFLPCSFNASQGRLAIGSVTWFRDEVVPGKEVRNGTPEFRGRLAPLASSRFLHDHQAELHIRDVRGHDASIYVCRVEVLGLGVGTGNGTRLVVEKE
modifications: a single GlcNAc unit left at each N-glycosylation site after Endo F1

Kd [21]: 770 nM | Kd [22]: 910 nM
B6: NKp30_LBD (Ligand Binding Domain), wild-type N-glycosylation (expressed in HEK293T) (domain or fragment)
chain: B5 chain
modifications: complex wild-type N-glycans (HEK293T)

Continued, molecule first:

Molecule: NKp30_Stalk, deglycosylated with endoglycosidase Endo F1 (from UniProt O14931 19-135)
Kd [1]: 350 nM

Molecule: NKp30_Stalk, uniform simple N-glycans (expressed in HEK293S GnTI^−) (from UniProt O14931 19-135)
Kd [2]: 70 nM | Kd [13]: 960 nM | Kd [3]: 970 nM | Kd [4]: 1000 nM | Kd [5]: 370 nM

Molecule: NKp30_Stalk, glycosylated, type of N-glycans not told in the text for the experiment (from UniProt O14931 19-135) (domain or fragment)
fold stronger binding than NKp30 LBD [14]: 10 fold | fold stronger binding than the NKp30 Stalk monomeric fraction [14]: 4 fold | fold higher affinity than NKp30 LBD [15]: 2 fold

Molecule: B7-H6 C212S extracellular portion, deglycosylated with endoglycosidase Endo F1 (from UniProt Q68D85 25-245)
Kd [6]: 380 nM

Molecule: NKp30 (from UniProt O14931)
Kd (B7-H6 (Homo sapiens)): 1000 nM

B3: B7-H6: Endo F1 (protein)
parent chain: MTWRAAASTCAALLILLWALTTEGDLKVEMMAGGTQITPLNDNVTIFCNIFYSQPLNITSMGITWFWKSLTFDKEVKVFEFFGDHQEAFRPGAIVSPWRLKSGDASLRLPGIQLEEAGEYRCEVVVTPLKAQGTVQLEVVASPASRLLLDQVGMKENEDKYMCESSGFYPEAINITWEKQTQKFPHPIEISEDVITGPTIKNMDGTFNVTSCLKLNSSQEDPGTVYQCVVRHASLHTPLRSNFTLTAARHSLSETEKTDNFSIHWWPISFIGVGLVLLIVLIPWKKICNKSSSAYTPLKCILKHWNSFDTQTLKKEHLIFFCTRAWPSYQLQDGEAWPPEGSVNINTIQQLDVFCRQEGKWSEVPYVQAFFALRDNPDLCQCCRIDPALLTVTSGKSIDDNSTKSEKQTPREHSDAVPDAPILPVSPIWEPPPATTSTTPVLSSQPPTLLLPLQ
stability_or_folding [20]: decreases

B4: NKp30_LBD (Ligand Binding Domain), uniform simple N-glycans (expressed in HEK293S GnTI^−) (domain or fragment)
chain: B5 chain
modifications: uniform Asn-GlcNAc2Man5 N-glycans; GlcNAc modelled at Asn42 in the crystal structure
Kd [21]: 890 nM | Kd [22]: 1010 nM

B7: NKp30: HEK293T wild-type glycosylation (protein)
parent chain: MAWMLLLILIMVHPGSCALWVSQPPEIRTLEGSSAFLPCSFNASQGRLAIGSVTWFRDEVVPGKEVRNGTPEFRGRLAPLASSRFLHDHQAELHIRDVRGHDASIYVCRVEVLGLGVGTGNGTRLVVEKEHPQLGAGTVLLLRAGFYAVSFLSVAVGSTVYYQGKCLTWKGPRRQLPAVVPAPLPPPCGSSAHLLPPVPGG
oligomerisation [23]: changes, one dominant species of ca 8 units and with secondary species of ca 16 units
